Assay results taken from the supplement of paper PMC9170038.

System: K4 kissing-loop RNA reporter
Assay: apparent KD of K4 kissing-loop reporter; higher = weaker reporter binding
Details: Eterna round: R107
Procedure: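 RNA-MaP round R107: designed RNA switches with theophylline, tryptophan, arginine or FMN aptamers are transcribed on-chip within common flanks. They are titrated with a labelled K4 kissing-loop RNA reporter in RNA-MaP buffer (100 mM Tris pH 7.5, 80 mM KCl, 4 mM MgCl2), without ligand or with the indicated ligand. Median apparent KD per design.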

[1] = input ligand: theophylline 20 uM
[2] = input ligand: tryptophan 2.4 mM
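Also: bound reporter read as fluorescence of individual clusters on recovered sequencing chips by microscopy, with normalized cluster intensities fitted with a binding model.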

| Sequence | apparent KD of K4 kissing-loop reporter (input ligand: FMN 200 uM) [nM] | apparent KD of K4 kissing-loop reporter (input ligand: arginine 13.2 mM) [nM] | apparent KD of K4 kissing-loop reporter (input ligand: none) [nM] | apparent KD of K4 kissing-loop reporter [1] [nM] | apparent KD of K4 kissing-loop reporter [2] [nM] |
| --- | --- | --- | --- | --- | --- |
| CCAUUCUUUUACGAUACCAGUUUAAUAUAUUUAAUCAAAACCCUCGCCGAGUGAUGUUCGGACCCUUGGCAGCGUUUGCGAGAGG [bjnbstkmullin] | 455 | 291 | 582 | 533 | 397 |
| CCCAAAAUAUGCAGUGAUGUUGCAACCGAUACCAGUAUCGAAAGAUACCCUUGGCAGCGGAAAACCGCAACGUAAUUUAAAAGGG [Ex Theophylline A K4 16] | 204 | 177 | 147 | 212 | 147 |
| CCCUCACGAGUGAUGUUCGUAGGGUACAGUCAGGAUAUCAUGCGGUUGAGAAGGGACAGAGAGGGCGGCCACUGGUUGCUCUUCU [Tiatesqu] | 150 | 249 | 235 | 418 | 200 |
| CCCUCACGAGUGAUGUUCGUAGGGUACAGUCAGGAUAUCAUGCGGUUGAGAAGGGACAGAGAGGGCGGCGGCGGGUUGCUCCUCU [Beeded] | 290 | 240 | 281 | 711 | 495 |
| CCGAAGAACCAGUGAUGUUGGUUGACUAGACAGGAUAUGAGCAACAUCAGAAGGGUCUGGCUUCGGGAGUGGGUCACGCUGACCU [Iserreanor] | 271 | 282 | 426 | 912 | 808 |
| CCGCUGUACUGCAAUAAGUGAUGUUUAUUGCAGGAUAUCUGGAAACAGAGAAGGGCAUGUACUCGACUUAGCCACUACAGCGGUU | 144 | 57.3 | 61.1 | 56.9 | 65.2 |
| CCGGCCCGGCCGGAUACCAGUGCGCCGCUGUGAACUGCGGGCCCAGAGUGAUGUUCGGGACACCCUUGGCAGCCGCCUGGGUCGC [#2 Same State - Theophylline B Attempt #26 (HarryS)] | 358 | 380 | 444 | 325 | 341 |
| CCGGGCGGCCGAAGGAGCGGGCGGACCCGAGUGAUGUUCGGGUGGCCCGUGAGGGCCGGUGCCCAGGUAGGUCGCGGAUCCGCCC [#2 Same State - Arginine B Attempt #3 (HarryS)] | 155 | 120 | 140 | 116 | 135 |
| CCGUGGAGUGAUGUUCCACGUACUACGGAUACCAGCUUUGCCAAAGGCCCUUGGCAGCCGCACGGCUCAGUGAUGUUGGGUCGCG [Same State Theophylline A G10] | 167 | 153 | 172 | 156 | 148 |
| CCUAGUGAUGUUAGGUCGUGCUCCUAUGAUACCAGCGUAGUCACUCGCCCUUGGCAGCAUUCCUUAUAAGGCGGUCGGGCGCGGU [theeternabot_sameState_KL_Theo_A_34] | 218 | 104 | 193 | 158 | 154 |
| CCUAUCUCAUACGAUACCAGUCAAAAUAUAAUUAACCAGUGAUGUUGGAUUUACCAAGGAGACCCUUGGCAGCGUAUGGGAUAGG [Ex Theophylline B K4 18] | 387 | 412 | 410 | 517 | 540 |
| CCUAUCUCAUACGAUACCAGUCAACGAGUGAUGUUCGAAUAAAUAAAUUUGCCAUAUAAUGACCCUUGGCAGCGUAUGGGAUAGG [Ex Theophylline B K4 14] | 352 | 373 | 337 | 431 | 334 |
| CCUAUCUCAUACGAUACCAGUCAAUGAAAUUUUAUCAAUGCCAUCACCGAGUGAUGUUCGGACCCUUGGCAGCGUAUGGGAUAGG [Ex Theophylline B K4 3] | 249 | 195 | 237 | 329 | 223 |
| CCUAUCUCAUACGAUACCAGUGAAUUUAUAUUUAUUAGCAGUGAUGUUGCAUUCCAAGUACACCCUUGGCAGCGUAUGGGAUAGG [Ex Theophylline B K4 22] | 147 | 204 | 178 | 172 | 140 |
| CCUAUCUCGUAGGAUACCAGACUAUGAUCUAUGAUCAAUGCCAUCACCGAGUGAUGUUCGGUCCCUUGGCAGCCUAUGAGAUGGG [#13 K4 Theophylline B Exclusion] | 166 | 147 | 159 | 221 | 154 |
| CCUGCAGCUGUAACCGAGUGAUGCUACGGACGAGGACCGGUACGGCCGCCACUCGCCAGUGAUGUUGGUGUGGGAGGACGUAACU [KL-XTryp-A22] | 200 | 140 | 190 | 178 | 199 |

| Sequence | apparent KD of K4 kissing-loop reporter (input ligand: FMN 200 uM) [nM] | apparent KD of K4 kissing-loop reporter (input ligand: arginine 13.2 mM) [nM] | apparent KD of K4 kissing-loop reporter (input ligand: none) [nM] | apparent KD of K4 kissing-loop reporter [1] [nM] | apparent KD of K4 kissing-loop reporter [2] [nM] |
| --- | --- | --- | --- | --- | --- |
| CCUUCUCUUGGUAGUGAUGUUAUCAAGGACAAGGAUAUCAUCUCAAUGAGAAGGUGUCCUUGAUAACAUGGAGGUCUGAAACAGA [Omei KL FMN A Exc C v8] | 65.5 | 352 | 174 | 455 | 615 |
| CCUUUCAGUUACGAUACCAGUCUAAUAUAUUUGAUCAAUACCCUCGCCGAGUGAUGUUCGGACCCUUGGCAGCGUCUGGGACAGG [gbbymullin] | 526 | 428 | 525 | 418 | 337 |
| CGACUAGUCUUGCAACCCUAGUCGAUAGACUAGGAUAUCAGGAAACUGAGAAGGAGUCUACUUGCAGUGAUGUUGCAAGAAUAAU [[F]''-[K]'-[F]'-[F1]-[F2]-[K1]-[K2]_Design6] | 163 | 176 | 170 | 168 | 156 |
| CGAGAAAGAGCGACUGGCGAUCUGUCUGAAGGAGCGGGUGCUAGCCCAGGUAGGUCGCAGACCUUGACGCCAGUGAUGUUGGCGG [Ritiatso] | 220 | 180 | 208 | 252 | 177 |
| CGCAGUGAUGUUGCGAGCAGCUACAGGGAAGGAGCGCUUUAGUAAGCAGGUAGGUCGCCCACGCAGUGAUGUUGCGUCAUAGGGU [Exclusion Arginine A GF 20] | 158 | 123 | 117 | 100 | 111 |
| CGCAGUGAUGUUGCGAGUAGCUACAGGGAAGGAGCGUGCUAGAGCACAGGUAGGUCGCCCACGCAGUGAUGUUGUGUCAAAGGGU [Exclusion Arginine A GF 11] | 167 | 168 | 165 | 179 | 146 |
| CGCAGUGAUGUUGCUAUUGUUCUUGGUUAACGAGGACCGGUACGGCCGCCACUCGAUGUCUGUCUAGUCCAGUGUUUUUUUGAGU [whbob_EX_Tryp_A_t9] | 513 | 493 | 592 | 571 | 310 |
| CGCCACGACUGAAGGAGCGCGCCAGUGAUGUUGGACGGCUUUGUCAAGGAAACUGCACCGGUGCAGGUAGGUCGCAGUUCGUGGU [Quisbiri] | 398 | 421 | 537 | 588 | 362 |
| CGCCGCAAGGCGAGCGCUCCCACUCCGGAAGGAGCGCCCGCAAGGGCAGGUAGGUCGCCGGAGUGAUGUUCCGGUGGAGGGCUCG [#2 Exclusion - Arginine A Attempt #15 (Inspired by Omei)] | 395 | 207 | 376 | 222 | 439 |
| CGCCGUAAGGCGGUCGCUCCCACUCCGGAAGGAGCGCCCGCAAGGGCAGGUAGGUCGCCGGAGUGAUGUUCCGGUGGAGGGACCG [#2 Exclusion - Arginine A Attempt #7 (Inspired by Omei)] | 207 | 161 | 260 | 216 | 186 |
| CGCGCGCGCCGCAAGGCGCGCGCGAACGAUACCAGUAUAUAAGAAUACCCUUGGCAGCGUAAGAAAGCUAUAGUGAUGUUGUAGA [#19 K4 Theophylline A Same State] | 254 | 121 | 226 | 265 | 273 |
| CGGAACGCAUCGGCCGCCACUUUUAUCUGCAGUGAUGUUGCAGUAUCCGAGCAAGGCUGUUGUGAAAGGACCGGGAUGGUCCGUU [Tibeberi] | 87.5 | 96.6 | 92.7 | 97.4 | 143 |
| CGGUUAUAGCAGGAUACCAGUACCCAUUAUGUACGUUUAUAGUAGAGUGAUGUUCUAAAGUACCCUUGGCAGCUUCCCGUGACCC [#23 K4 Theophylline B Exclusion] | 150 | 199 | 168 | 265 | 127 |
| CGUGAGGACCUGAGGUGAUGUAUAGUAUCGCGAGGACCGGUACGGCCGCCACUCGUGAAGAGAAAGGAGUGAUGUUCCGUAAGGG | 474 | 470 | 470 | 677 | 138 |
| CGUGAGUGAUGUUCACGAGGCUUGUUUCUAGAGGAUAUUCACUUUAGAAGAAGGCUAGAGAUCUAUAUCGUGAUGCUCGAUAACG [FMN A Ex t1] | 295 | 247 | 197 | 260 | 155 |
